# Source: US20260109758A1 (BIOSION, published 2026)
# What was measured:
# [1] = biological target: T1, human IL4Rα expressed on 293F-IL4Rα cell surface (human, UniProt P24394 26-825); assay: cell-based blocking FACS on 293F-IL4Rα cells; blocked ligand biotin human IL4
# T1 construct: whole, on cells; also called human IL4Rα-expressing cells; cell surface IL4R
# Procedure: Then, 1×10⁵ cells per well were incubated in 96 well-plates in 100 μL of serially diluted bispecific antibodies, the positive controls or negative control (starting at 100 nM with a 5-fold serial dilution) in FACS buffer for 40 minutes on ice. […] The plates were washed twice with FACS buffer, and then added and incubated for 40 minutes at 4° C. in dark with 100 μL/well R-Phycoerythrin Streptavidin (1:500 dilution in FACS buffer, Jackson Immunoresearch, Cat #016-110-084). Cells were washed twice and resuspended in FACS buffer. Fluorescence was measured using a Becton Dickinson FACS Canto II-HTS equipment. Data was analyzed using Graphpad Prism and IC₅₀ values were reported.
# [2] = biological target: T2, biotin-labeled human TSLP-Fc (human, biotin-labeled); assay: cell-based blocking FACS: antibody pre-mixed with biotin human TSLP-Fc; blocked binding to cell-surface TSLPR/IL7Ra on HEK293T-TSLPR/IL7R/STAT5-Luc 5C5 cells
# T2 construct: also called TSLP-Fc protein; TSLP-Fc-biotin
# Procedure: The cells were prepared following the instruction of lipofectamine 3000 transfection reagent (Thermo Fisher), by transfecting HEK293T cells (ATCC® CRL-11268) with pCMV-T-P plasmids inserted with TSLPR coding sequence between EcoRI and Xba1 sites and pCMV3-SP plasmids inserted with IL7Ra coding sequence between HindIII and Xba1 sites as well as pGL4.52 [luc2P/STAT5RE/Hygro](Promega).
# The cells were harvested from cell culture flasks, washed twice and re-suspended in phosphate buffered saline (PBS) containing 2% v/v Fetal Bovine Serum (FACS buffer). […] Cells were washed twice with FACS buffer, and then added and incubated with 100 μL/well R-Phycoerythrin Streptavidin (1:500 dilution in FACS buffer, Jackson Immunoresearch, Cat #016-110-084) for 40 minutes at 4° C. in dark. Cells were washed twice and re-suspended in FACS buffer. Fluorescence was measured using a Becton Dickinson FACS Canto II-HTS equipment. Data was analyzed using Graphpad Prism and IC₅₀ values were reported.
# [3] = biological target: T3, recombinant human IL4Rα-his (human, UniProt P24394 26-231, limits assumed, biotin-labeled in the capture ELISA); assay: competitive ELISA: coated human IL4Rα-his, antibody titrated; blocked ligand biotin human IL4
# T3 construct: In-house made; not shown: His tag at the C-terminus
# Procedure: Briefly, 100 μL human IL4Rα-his proteins (prepared in-house, IL4Rα of SEQ ID NO: 33 with C-terminal His tag) were coated on 96-well micro plates at 2 μg/mL in PBS overnight at 4° C. The next day, plates were washed with wash buffer (PBS+0.05% w/v Tween-20, PBST), and blocked with 5% w/v non-fatty milk in PBST for 2 hours at 37° C. Plates were then washed again using wash buffer. Serially diluted bispecific antibodies or the controls (starting at 100 nM with a 5-fold serial dilution) in 2.5% w/v non-fatty milk in PBST, 100 μL per well, were added to the IL4Rα bound plates, and incubated at 37° C. for 40 minutes. […] Plates were washed again using wash buffer. Thereafter, the plates were added with 100 μL/well of streptavidin conjugated HRP (1:10000 dilution in PBST buffer, Jackson Immunoresearch, Cat #016-030-084) and incubated for 40 minutes at 37° C. Plates were washed again using wash buffer. Finally, TMB was added and the reaction was stopped using 1M H₂SO₄, and the absorbance was read at 450 nm. Data was analyzed using Graphpad Prism and IC₅₀ values were reported.
# [4] = biological target: T1, human IL4Rα expressed on 293F-IL4Rα …; assay: flow cytometry on 293F-IL4Rα cells, PE anti-human IgG Fc
# Procedure: Cells were washed twice with FACS buffer, and added with 100 μL/well R-Phycoerythrin AffiniPure Goat Anti-Human IgG, Fey fragment specific (1:1000 dilution in FACS buffer, Jackson Immunoresearch, Cat #109-115-098). Following an incubation of 40 minutes at 4° C. in dark, cells were washed three times and resuspended in FACS buffer. Fluorescence was measured using a Becton Dickinson FACS Canto II-HTS equipment. Data was analyzed using Graphpad Prism and EC₅₀ values were reported.
# [5] = biological target: T3, recombinant human IL4Rα-his; assay: capture ELISA: antibody captured on anti-human IgG Fc F(ab')2, biotin human IL4Rα-his, SA-HRP
# Procedure: Briefly, 96-well plates were coated with 2 μg/mL AffiniPure F(ab′)₂ Fragment Goat Anti-Human IgG, Fey fragment specific (Jackson Immuno Research, Cat #109-006-008) in PBS, 100 μL/well, overnight at 4° C. Plates were washed once with wash buffer (PBS+0.05% w/v Tween-20, PBST) and then blocked with 200 μL/well blocking buffer (5% w/v non-fatty milk in PBST) for 2 hours at 37° C. […] After a final wash, plates were incubated with 100 μL/well ELISA substrate TMB (Innoreagents, Cat #TMB-S-002). The reaction was stopped in 10 minutes at 25° C. with 50 μL/well 1M H₂SO₄, and the absorbance was read on a microplate reader using dual wavelength mode with 450 nm for TMB and 630 nm as the reference wavelength. Data was analyzed using Graphpad Prism and EC₅₀ values were reported.
Binder,IC50 [1] [nM],IC50 [2] [nM],IC50 [3] [nM],EC50 [4] [nM],EC50 [5] [nM]
"BSI-502-007 (bispecific antibody, human IgG1, kappa, huC2C1A1A1-V15 IgG with an anti-TSLP scFv (VH-VL) at the N-terminus of the heavy chain; AQQ and YTE already stand in the entry) heavy: QVQLVQSGAEVKKPGASVKVSCKASGYTFTTYWMHWVRQAPGQGLEWMGVIDPSDSDTTYNQKFKGRVTMTRDTSTSTVYMELSSLRSEDTAVYYCTRSLDGYYDYWGQGTLVTVSSGGGGSGGGGSGGGGSGGGGSDIQMTQSPSSLSASVGDRVTITCRPTENIYSYLAWYQQKPGKAPKLLIYFARTLAEGVPSRFSGSGSGTDFTLTISSLQPEDFATYYCQHHYGTPWTFGGGTKVEIKGGGGSGGGGSEVQLVESGGGLVQPGGSLRLSCAASGFTFSTYGMSWVRQAPGKGLVWVATINSNGGSTSYPDSVKGRFTISRDNAKNTLYLQMNSLRAEDTAVYYCARFFRFRNAMDYWGQGTLVTVSSASTKGPSVFPLAPSSKSTSGGTAALGCLVKDYFPEPVTVSWNSGALTSGVHTFPAVLQSSGLYSLSSVVTVPSSSLGTQTYICNVNHKPSNTKVDKKVEPKSCDKTHTCPPCPAPEAQGGPSVFLFPPKPKDTLYITREPEVTCVVVDVSHEDPEVKFNWYVDGVEVHNAKTKPREEQYNSTYRVVSVLTVLHQDWLNGKEYKCQVSNKALPAPIEKTISKAKGQPREPQVYTLPPSRDELTKNQVSLTCLVKGFYPSDIAVEWESNGQPENNYKTTPPVLDSDGSFFLYSKLTVDKSRWQQGNVFSCSVMHEALHNHYTQKSLSLSPG light: DIQMTQSPSSLSASVGDRVTITCRTSENIYSYLAWYQQKPGKAPKFLVYNAKTLAEGVPSRFSGSGSGTDFTLTISSLQPEDFATYYCQHYYGPPTWTFGQGTKVEIKRTVAAPSVFIFPPSDEQLKSGTASVVCLLNNFYPREAKVQWKVDNALQSGNSQESVTEQDSKDSTYSLSSTLTLSKADYEKHKVYACEVTHQGLSSPVTKSFNRGEC",0.199,1.12,0.212,0.188,0.0272
"BSI-502-008 (bispecific antibody, human IgG1, kappa, huC2C1A1A1-V15 IgG with an anti-TSLP scFv (VL-VH) at the N-terminus of the heavy chain; AQQ and YTE already stand in the entry) heavy: DIQMTQSPSSLSASVGDRVTITCRPTENIYSYLAWYQQKPGKAPKLLIYFARTLAEGVPSRFSGSGSGTDFTLTISSLQPEDFATYYCQHHYGTPWTFGGGTKVEIKGGGGSGGGGSGGGGSGGGGSQVQLVQSGAEVKKPGASVKVSCKASGYTFTTYWMHWVRQAPGQGLEWMGVIDPSDSDTTYNQKFKGRVTMTRDTSTSTVYMELSSLRSEDTAVYYCTRSLDGYYDYWGQGTLVTVSSGGGGSGGGGSEVQLVESGGGLVQPGGSLRLSCAASGFTFSTYGMSWVRQAPGKGLVWVATINSNGGSTSYPDSVKGRFTISRDNAKNTLYLQMNSLRAEDTAVYYCARFFRFRNAMDYWGQGTLVTVSSASTKGPSVFPLAPSSKSTSGGTAALGCLVKDYFPEPVTVSWNSGALTSGVHTFPAVLQSSGLYSLSSVVTVPSSSLGTQTYICNVNHKPSNTKVDKKVEPKSCDKTHTCPPCPAPEAQGGPSVFLFPPKPKDTLYITREPEVTCVVVDVSHEDPEVKFNWYVDGVEVHNAKTKPREEQYNSTYRVVSVLTVLHQDWLNGKEYKCQVSNKALPAPIEKTISKAKGQPREPQVYTLPPSRDELTKNQVSLTCLVKGFYPSDIAVEWESNGQPENNYKTTPPVLDSDGSFFLYSKLTVDKSRWQQGNVFSCSVMHEALHNHYTQKSLSLSPG light: DIQMTQSPSSLSASVGDRVTITCRTSENIYSYLAWYQQKPGKAPKFLVYNAKTLAEGVPSRFSGSGSGTDFTLTISSLQPEDFATYYCQHYYGPPTWTFGQGTKVEIKRTVAAPSVFIFPPSDEQLKSGTASVVCLLNNFYPREAKVQWKVDNALQSGNSQESVTEQDSKDSTYSLSSTLTLSKADYEKHKVYACEVTHQGLSSPVTKSFNRGEC",0.169,1.13,0.236,0.176,0.0323
"BSI-502-005 (bispecific antibody, human IgG1, kappa, hu1C5F12E9-V8 IgG with an anti-IL4R scFv (VH-VL) at the C-terminus of the heavy chain; AQQ and YTE already stand in the entry) heavy: QVQLVQSGAEVKKPGASVKVSCKASGYTFTTYWMHWVRQAPGQGLEWMGVIDPSDSDTTYNQKFKGRVTMTRDTSTSTVYMELSSLRSEDTAVYYCTRSLDGYYDYWGQGTLVTVSSASTKGPSVFPLAPSSKSTSGGTAALGCLVKDYFPEPVTVSWNSGALTSGVHTFPAVLQSSGLYSLSSVVTVPSSSLGTQTYICNVNHKPSNTKVDKKVEPKSCDKTHTCPPCPAPEAQGGPSVFLFPPKPKDTLYITREPEVTCVVVDVSHEDPEVKFNWYVDGVEVHNAKTKPREEQYNSTYRVVSVLTVLHQDWLNGKEYKCQVSNKALPAPIEKTISKAKGQPREPQVYTLPPSRDELTKNQVSLTCLVKGFYPSDIAVEWESNGQPENNYKTTPPVLDSDGSFFLYSKLTVDKSRWQQGNVFSCSVMHEALHNHYTQKSLSLSPGKGGGGSGGGGSEVQLVESGGGLVQPGGSLRLSCAASGFTFSTYGMSWVRQAPGKGLVWVATINSNGGSTSYPDSVKGRFTISRDNAKNTLYLQMNSLRAEDTAVYYCARFFRFRNAMDYWGQGTLVTVSSGGGGSGGGGSGGGGSGGGGSDIQMTQSPSSLSASVGDRVTITCRTSENIYSYLAWYQQKPGKAPKFLVYNAKTLAEGVPSRFSGSGSGTDFTLTISSLQPEDFATYYCQHYYGPPTWTFGQGTKVEIK light: DIQMTQSPSSLSASVGDRVTITCRPTENIYSYLAWYQQKPGKAPKLLIYFARTLAEGVPSRFSGSGSGTDFTLTISSLQPEDFATYYCQHHYGTPWTFGGGTKVEIKRTVAAPSVFIFPPSDEQLKSGTASVVCLLNNFYPREAKVQWKVDNALQSGNSQESVTEQDSKDSTYSLSSTLTLSKADYEKHKVYACEVTHQGLSSPVTKSFNRGEC",0.381,1.39,0.449,0.417,0.119
